Experimental data: patent publication US20050182242A1, “Global analysis of protein activities using proteome chips” (priority 2001, published 2005)

Tests used:
Conditions in all cases: liposome binding signal on yeast proteome chip, Cy3-streptavidin detection
[1] = test system: phosphatidylcholine (PC) liposomes; test: Yeast proteome chip probed with PC liposomes
Method in brief: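 Yeast proteome chips incubated 1 h at RT with sonicated liposomes of PC containing 1% (w/w) biotin-DHPE, plus 5% (w/w) of the indicated phosphoinositide where applicable. After PBS washes, bound liposomes detected with Cy3- or Cy5-streptavidin (>30 min, RT, dark) and fluorescence scanned.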

PI(3,4,5)P3 liposomes = test: Yeast proteome chip probed with PI(3,4,5)P3 liposomes
PI(3)P liposomes = test: Yeast proteome chip probed with PI(3)P liposomes
Source text: To identify PI-binding proteins in yeast, liposomes were used as probes because the liposome provides the most relevant physiological condition to assay the interactors. Six types of liposomes were used. Each contains phosphatidylcholine (“PC”) with 1% (w/w) N-(biotinoyl)-1,2-dihexadecanoyl-sn-glycero-3-phosphoethanolamine, triethylammonium salt (biotin DHPE). The biotinylated lipid serves as a label that can be detected by Cy3-streptavidin (21). In addition to PC, the five other liposomes contain either 5% (w/w) PI(3)P, PI(4)P, PI(3,4)P2, PI(4,5)P2, or PI(3,4,5)P3 (FIG. 3A).
The protein-liposome interaction was assayed as follows. Appropriate amounts of each lipid in chloroform were mixed and dried under nitrogen. The lipid mixture was resuspended in TBS buffer by vortexing. The liposomes were created by sonication. Blocked proteome chips were washed three to five times in PBS buffer, and the extra liquid on the glass surface was removed by tapping the slides vertically on a KIMWIPE™. 200 μl of liposome solution was added to the proteome chip and immediately covered by a hydrophobic plastic cover slip (GRACE BIO-LAB™, USA). After trapped air bubbles were removed, the chip was incubated in a humidity chamber at RT for one hour. To remove the cover slip, the chip was immersed into large volume of PBS buffer (50 ml), so that the slip would float away. The chip was then moved to a second PBS bath (>50 ml) and washed 3×5 min with shaking at RT. After removing extra liquid on the surface of the chip, about 100 μl of Cy3 or Cy5 conjugated streptavidin (PIERCE™, USA; 1:2000 to 1:4000 dilution) was added to the surface and covered by a hydrophobic plastic cover slip (GRACE BIO-LABS™, USA). The chip was incubated for greater than 30 min in the dark at RT. The chip was then washed as described above. To completely remove the liquid on the chip, the chip was spun to dryness at 1500-2000 rpm for 5-10 min at RT.
• 1. S. Fields, Y. Kohara, D. J. Lockhart, Proc. Natl. Acad. Sci. 96, 8825 (1999); A. Goffeau et al., Science 274, 563 (1996). • 2 P. Ross-Macdonald et al., Nature 402, 413 (1999); J. L., DeRisi, V. R. Iyer, P. O. Brown, Science 278, 680 (1997); E. A. Winzeler et al., Science 285, 901 (1999). P. Uetz et al., Nature 403, 623 (2000); T. Ito et al., Proc. Natl. Acad. Sci. USA. 97, 1143 (2000) • 3 H. Zhu, M. Snyder, Curr. Opin. Chem. Biol. 5, 40 (2001). • 4 M. R. Martzen et al., Science 286, 1153 (1999). • 5 H. Zhu et al., Nat. Genet. 26, 283 (2000). • 6 G. MacBeath, S. L. Schreiber, Science 289, 1760 (2000). • 7 A. Caveman, J. Cell Sci. 113, 3543 (2000). • 8 P. Arenkov et al., Anal. Biochem 278, 123 (2000). • 9 D. A. Mitchell, T. K. Marshall, R. J. Deschenes, Yeast 9, 715 (1993). The expression vector pEGH was created by inserting an RGS-HisX6 epitope tag between the GST gene and the polycloning site of pEG(KG). The yeast ORFs were cloned using the strategy described previously (5), except every step was done in a 96-well format. Plasmid DNAs confirmed by DNA sequencing were reintroduced into both yeast (Y258) and E. coli (DH5a). […] 0.1 mM calcium was present in buffers in all subsequent steps. The chip was washed three times with PBS at RT. Cy3-conjugated streptavidin (Jackson IR, USA) (1:5000 dilution) was added to the chip and incubated for 30 min at RT. After extensive washing, the chip was spun dry and scanned using a microarray scanner; the data was subsequently acquired with the GENEPIX™ array densitometry software (Axon, USA). • 12 S. S. Hook, A. R. Means, Annu. Rev. Pharmacol. Toxicol.41, 471 (2001). • 13 M. S. Cyert, R. Kunisawa, D. Kaim, J. Thorner, Proc. Natl. Acad. Sci. USA 88, 7376 (1991). • 14 D. A. Stirling, K. A. Welch, M. J. Stark, EMBO J. 13, 4329 (1994). • 15 F. Bohl, Kruse, EMBO J. 19, 5514 (2000); E. Bertrand et al., Mol. Cell 2, 437 (1998). • 16 D. C. Winter, E. Y. Choe, R. Li, Proc. Nat. Acad Sci. USA 96, 7288 (1999). • 17 C.

PI(4,5)P2 liposomes = test: Yeast proteome chip probed with PI(4,5)P2 liposomes
PI(4)P liposomes = test: Yeast proteome chip probed with PI(4)P liposomes
PI(3,4)P2 liposomes = test: Yeast proteome chip probed with PI(3,4)P2 liposomes

Molecule	PC [1]	PI(3, 4, 5)P3 (PI(3,4,5)P3 liposomes)	PI(3)P (PI(3)P liposomes)	PI(4, 5)P2 (PI(4,5)P2 liposomes)	PI(4)P (PI(4)P liposomes)	PI(3, 4)P2 (PI(3,4)P2 liposomes)
HIS7: yeast GST-HisX6 fusion protein on proteome chip (protein, UniProt P33734 1-552, looked up, GST-His6 fusion tag, yeast GST-HisX6 fusion protein on proteome chip) Imidazole glycerol phosphate …: MPVVHVIDVESGNLQSLTNAIEHLGYEVQLVKSPKDFNISGTSRLILPGVGNYGHFVDNLFNRGFEKPIREYIESGKPIMGICVGLQALFAGSVESPKSTGLNYIDFKLSRFDDSEKPVPEIGWNSCIPSENLFFGLDPYKRYYFVHSFAAILNSEKKKNLENDGWKIAKAKYGSEEFIAAVNKNNIFATQFHPEKSGKAGLNVIENFLKQQSPPIPNYSAEEKELLMNDYSNYGLTRRIIACLDVRTNDQGDLVVTKGDQYDVREKSDGKGVRNLGKPVQLAQKYYQQGADEVTFLNITSFRDCPLKDTPMLEVLKQAAKTVFVPLTVGGGIKDIVDVDGTKIPALEVASLYFRSGADKVSIGTDAVYAAEKYYELGNRGDGTSPIETISKAYGAQAVVISVDPKRVYVNSQADTKNKVFETEYPGPNGEKYCWYQCTIKGGRESRDLGVWELTRACEALGAGEILLNCIDKDGSNSGYDLELIEHVKDAVKIPVIASSGAGVPEHFEEAFLKTRADACLGAGMFHRGEFTVNDVKEYLLEHGLKVRMDEE	193.11	78.07	20.00	18.73	226.45	–
ARO4: yeast GST-HisX6 fusion protein on proteome chip (protein, UniProt P32449 2-370, looked up, GST-His6 fusion tag, yeast GST-HisX6 fusion protein on proteome chip) Phospho-2-dehydro-3-deoxyhepto …: SESPMFAANGMPKVNQGAEEDVRILGYDPLASPALLQVQIPATPTSLETAKRGRREAIDIITGKDDRVLVIVGPCSIHDLEAAQEYALRLKKLSDELKGDLSIIMRAYLEKPRTTVGWKGLINDPDVNNTFNINKGLQSARQLFVNLTNIGLPIGSEMLDTISPQYLADLVSFGAIGARTTESQLHRELASGLSFPVGFKNGTDGTLNVAVDACQAAAHSHHFMGVTKHGVAAITTTKGNEHCFVILRGGKKGTNYDAKSVAEAKAQLPAGSNGLMIDYSHGNSNKDFRNQPKVNDVVCEQIANGENAITGVMIESNINEGNQGIPAEGKAGLKYGVSITDACIGWETTEDVLRKLAAAVRQRREVNKK	28.17	29.25	87.50	20.47	42.24	34.53
GAD1: yeast GST-HisX6 fusion protein on proteome chip (protein, UniProt Q04792 1-585, looked up, GST-His6 tag, yeast GST-HisX6 fusion protein on proteome chip) Glutamate decarboxylase: MLHRHGSKQKNFENIAGKVVHDLAGLQLLSNDVQKSAVQSGHQGSNNMRDTSSQGMANKYSVPKKGLPADLSYQLIHNELTLDGNPHLNLASFVNTFTTDQARKLIDENLTKNLADNDEYPQLIELTQRCISMLAQLWHANPDEEPIGCATTGSSEAIMLGGLAMKKRWEHRMKNAGKDASKPNIIMSSACQVALEKFTRYFEVECRLVPVSHRSHHMLDPESLWDYVDENTIGCFVILGTTYTGHLENVEKVADVLSQIEAKHPDWSNTDIPIHADGASGGFIIPFGFEKEHMKAYGMERWGFNHPRVVSMNTSGHKFGLTTPGLGWVLWRDESLLADELRFKLKYLGGVEETFGLNFSRPGFQVVHQYFNFVSLGHSGYRTQFQNSLFVARAFSFELLNSSKLPGCFEIVSSIHESIENDSAPKSVKDYWEHPQAYKPGVPLVAFKLSKKFHEEYPEVPQAILSSLLRGRGWIIPNYPLPKATDGSDEKEVLRVVFRSEMKLDLAQLLIVDIESILTKLIHSYEKVCHHIELASEQTPERKSSFIYEMLLALASPQDDIPTPDEIEKKNKLKETTTRNYRGTC	24.36	–	51.25	11.54	−1.96	–
ERV1: yeast GST-HisX6 fusion protein on proteome chip (protein, UniProt P27882 1-189, looked up, GST-His6 tag, yeast GST-HisX6 fusion protein on proteome chip) Mitochondrial FAD-linked …: MKAIDKMTDNPPQEGLSGRKIIYDEDGKPCRSCNTLLDFQYVTGKISNGLKNLSSNGKLAGTGALTGEASELMPGSRTYRKVDPPDVEQLGRSSWTLLHSVAASYPAQPTDQQKGEMKQFLNIFSHIYPCNWCAKDFEKYIRENAPQVESREELGRWMCEAHNKVNKKLRKPKFDCNFWEKRWKDGWDE	–	1.35	15.75	18.94	−3.27	–
PAU5: yeast GST-HisX6 fusion protein on proteome chip (protein, UniProt P43575 1-122, looked up, GST-His6 fusion tag, yeast GST-HisX6 fusion protein on proteome chip) Seripauperin-5: MVKLTSIAAGVAAIAAGASAAATTTLSQSDERVNLVELGVYVSDIRAHLAEYYSFQAAHPTETYPVEIAEAVFNYGDFTTMLTGIPADQVTRVITGVPWYSSRLKPAISSALSADGIYTIAN	22.30	–	−3.00	−1.31	31.35	−5.02
HEM14: yeast GST-HisX6 fusion protein on proteome chip (protein, UniProt P40012 1-539, looked up, GST-HisX6 tag, yeast GST-HisX6 fusion protein on proteome chip) Protoporphyrinogen oxidase: MLLPLTKLKPRAKVAVVGGGVSGLCFTYFLSKLRPDVEITLFESQNRTGGWIYSCNTRDMSGNPIMLEKGPRTLRGVSDGTVLIMDTLKDLGKEAVIQSIDKGCIADKKFLLDPSDKLVQVPNSISTTVKFLLNPLGKGLITGMMGEWFRKKSPHPGQDESVESICDRRFGNNYISNNMISALLRGIYGDDVSLLSAKRTFKKIYYNELKHGSNTQAMIDNMRGKSRSKKTENLHQSLTGCLNDYSNAFGKDRSKLLDLSNTLKKYPMLGLAGGLETFPKIVRNALNEFKNVKIVTGNPVTQIMKRPANETTIGLKAKSGDQYETFDHLRLTITPPKIAKLLPKDQNSLSKLLDEIQSNTIILVNYYLPNKDVIDADLQGFGYLVPKSNKNPGKLLGVIFDSVIERNFKPLFDKLSTNPNALNKYTKVTAMIGGCMLNEHGVPVVPSREVTINAVKDALNNHLGISNKDLEAGQWEFTIADRCLPRFHVGYDAWQERAERKLQESYGQTVSVGGMGFSRSPGVPDVIVDGFNDALQLSK	38.15	8.55	1.00	–	16.11	21.03
